The test addresses C-terminal extension of Bacillus cereus hemolysin II (HlyIICTD) (Bacillus cereus). The experiment in a line: not stated; HlyIICTD in the presence of 4M urea.

For “C-terminal extension of Bacillus cereus hemolysin II (HlyIICTD) (domain or fragment)”, the stoichiometry N is 3.

As usually defined, the stoichiometry N is a count of units in the complex or per binding partner.

(Values after paper PMC8069557.)
